The target of test [1] is T1, human fatty acid amide hydrolase (FAAH), amino acids 30-579 (human, UniProt O00519 30-579).
T1 construct: range 30-579; Expressed in E. coli as an MBP fusion; The MBP tag was cleaved with Factor Xa, and SPR used the untagged FAAH; also called untagged FAAH; purified human FAAH protein
T1 sequence (looked up): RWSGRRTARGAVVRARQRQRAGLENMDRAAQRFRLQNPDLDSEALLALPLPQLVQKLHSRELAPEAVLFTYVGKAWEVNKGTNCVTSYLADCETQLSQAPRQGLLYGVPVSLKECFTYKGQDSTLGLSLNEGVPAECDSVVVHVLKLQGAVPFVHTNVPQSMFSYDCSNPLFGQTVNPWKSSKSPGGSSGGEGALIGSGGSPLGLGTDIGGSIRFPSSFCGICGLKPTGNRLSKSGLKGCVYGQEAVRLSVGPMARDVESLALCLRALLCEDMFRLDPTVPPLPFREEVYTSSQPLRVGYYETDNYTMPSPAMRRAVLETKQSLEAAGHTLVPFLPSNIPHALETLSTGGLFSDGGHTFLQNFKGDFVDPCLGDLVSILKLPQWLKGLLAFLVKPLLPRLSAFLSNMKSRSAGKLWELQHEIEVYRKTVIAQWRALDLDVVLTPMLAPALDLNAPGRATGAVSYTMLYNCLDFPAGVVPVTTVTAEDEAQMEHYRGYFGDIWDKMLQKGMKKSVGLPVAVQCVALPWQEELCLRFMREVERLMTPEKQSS
Briefly: SPR (Biacore T100), purified VHH and untagged FAAH, 1:1 model. On the procedure:
(§1) In some cases, scFv/VHH were further purified by gel filtration using Superdex 75 column (GE Healthcare). Proteins were concentrated using Amicon Ultra-15 10 kDa centrifugal filter unit (Millipore) and stored in PBS at −70° C. Titration ELISA. Titration ELISA was used to measure binding of purified scFv to GLP-1R. GLP-1R immobilization in a 96 well plate and blocking was carried out as described for phage ELISA. A purified scFv was prepared at varying concentrations (from 1 nM to 3 μM) in 2% MPBS. 100 μl scFv aliquot of each concentration was added to a well and incubated at RT for 1.5 h. The plate was then washed with TPBS and PBS three times each. Primary anti His-tag Mouse mAb (Cell signaling Technology, Inc.) was diluted 1:250 in 2% MPBS and added into each well. […] The absorbance was read at 450 nm, using SpectraMax iD5 microplate reader (Molecular Devices, LLC). The dissociation constant Kd was calculated according to a published protocol. […] Binding of purified VHH nanobodies to Artemin and to untagged FAAH proteins was determined using Biacore T100 instrument (GE Healthcare). […] Kinetic constants for binding interaction were determined by fitting the sensorgrams with 1:1 binding model using Biacore T100 evaluation software, version 2.0 (GE healthcare).
(In general: In SPR one partner is held on a chip, and binding of the other changes the refractive index at the surface.)

Test [2] has as its target T1, human fatty acid amide hydrolase …. Briefly: SPR (Biacore T100), compared with parent A3 nanobody. On the procedure: as §1
The target in test [3] is T2, human Glucagon-like peptide-1 receptor (GLP-1R), purified His6-tagged protein (human, UniProt P43220 24-463, limits assumed).
T2 construct: Recombinant human His6-tagged GLP-1R purified from Sf9 biomass and immobilised on the plate for ELISA; also called purified GLP-1R protein
Kind of test: titration ELISA, apparent Kd compared with the parental scFv.

The target in test [4] is T2, human Glucagon-like peptide-1 receptor …. Briefly: titration ELISA, GLP-1R coated on the plate, purified scFv titrated; apparent Kd. Background: An ELISA detects its analyte on a solid surface through an enzyme-linked reagent.
The target of test [5] is T3, recombinant mouse artemin protein (Ala112-Gly224 fragment) (mouse, UniProt Q9Z0L2 112-224).
T3 construct: range 112-224; Bought as lyophilized powder from R&D Systems
T3 sequence (looked up): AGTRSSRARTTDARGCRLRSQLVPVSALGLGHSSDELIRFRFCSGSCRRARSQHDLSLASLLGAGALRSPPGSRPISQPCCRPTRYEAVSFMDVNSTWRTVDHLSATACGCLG
Kind of test: SPR (Biacore T100), purified VHH and mouse artemin, 1:1 model. On the procedure: as §1

Data on three molecules can be found in US20230295271A1 (UNIVERSITY OF SOUTHERN CALIFORNIA, published 2023).

B1: OD1 VHH nanobody (VHH)
VHH: VQLVESGGGLVQAGGSLRLSCAASGRTFSDNTMAWHRQGPGKQRGLVAFITTGGRTVYTDSVKGRFIISRDNAKNTGFLQMNSLKPEDTAVYYCYVAGNWGQGTQVTVHH
notes: Purified soluble His6-tagged llama VHH; also called mutated VHH clone (OD1)
As to B1, in test [1], the Kd came to 0.65 nM. Besides, the “fold increase in FAAH affinity compared to parent VHH A3” value in test [2] is about 2.4 fold.

B2: GHM33 scFv (scFv)
scFv: VQLVQSGAEVKKPGSSVKVSCKASGGTFSSYAISWVRQAPGQGLEWMGGIIPIFGTANYAQKFQGRVTITADESTSTAYMELSSLRSEDTAVYYCARGRDDYYDSSAFDYWGQGTLVTVGGGGSGGGGSGGGGSGGGGSVLTQPPSVSVAPGQTARVTCGGNKIGSYSVYWYQHKPGQAPVLVVYDDSDRPSGIPERFSGSNSGNMATLTISGVEAGDEADYYCQVWDCTTDDVIFGGGTKLTVLHHHHHH
notes: Purified soluble His6-tagged scFv expressed from pADL-20c in the E. coli periplasm; The printed VH and VL start at the second residue and stop before the end of the J region; also called mutated scFv clone (GHM33); anti-GLP-1R scFv
On to B2, for which the “fold lower Kd than the parental scFv” value in test [3] is about 3 fold. In addition, the Kd in test [4] came to 100 nM.

B3: LM52 VHH nanobody (VHH)
VHH: VQLVESGGGLVQAGASLRLSCAASGGTLVNSSMGWFRQAPGKERDFVATINWRGDTTWYGESVKGRFSISRDNTKNMVYLQMNSLKPEDTAVYYCAVYRTRYYTGRRMMSPDEYDVWGQGTQVTVHH
notes: From the mutagenized llama VHH library; likely a mutant variant of LU5
Consider B3, for which the Kd in test [5] amounted to 102 nM.
